Measured values reported in US20230052369A1 (Zymeworks, published 2023).

Columns and labels:
[1] = target: T1, recombinant His-tagged human FRα (human, UniProt P15328 25-234); assay: BLI, supernatant, n=1
T1 construct: Bought protein; also called hFRα; FRα-HIS
Method: (§1) The assay buffer used was KB buffer (kinetics buffer, composed of PBS pH 7.4, 0.1% BSA, 0.02% Tween 20, 0.05% sodium azide) supplemented with 0.06% Tween 20. The experiment was conducted at 25° C. with a shake speed of 1000 rpm.
(§2) Data analysis was performed using the Data analysis software 9.0′ (ForteBio). The reference-subtracted binding curves were globally fitted to the 1:1 interaction model to generate the binding kinetic parameters kₒₙ, koff, and the dissociation constant KD.

[2] = target: T1, recombinant His-tagged human FRα; assay: BLI, purified, average n=2
Method: as §1, §2

[3] = target: T2, human 4-1BB, full-length, expressed on cells (human, UniProt Q07011 24-255); assay: flow cytometry, Jurkat-4-1BB
T2 construct: also called CD137; TNFRSF9
T2 sequence (Q07011 24-255): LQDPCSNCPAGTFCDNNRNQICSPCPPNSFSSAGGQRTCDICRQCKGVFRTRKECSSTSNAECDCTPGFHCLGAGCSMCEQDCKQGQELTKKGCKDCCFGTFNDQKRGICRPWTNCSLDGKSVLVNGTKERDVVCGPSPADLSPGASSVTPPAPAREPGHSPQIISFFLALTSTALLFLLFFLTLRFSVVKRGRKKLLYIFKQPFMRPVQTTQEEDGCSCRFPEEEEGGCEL
Method: Jurkat T cells engineered to stably express human 4-1BB were used to measure binding of antibodies to human 4-1BB. Antibodies were diluted in 5 μl FB (PBS 2% FCS) 1:3 from stock in wells of a 96 V-well plate, and cells added on top. The cells were then left on ice for 30 minutes for the antibodies to bind. The cells were then washed twice in FB, and then incubated in 50 μl FB containing 2 μg/ml goat anti-human Alexa647 antibody (Jackson Immunoresearch). The cells were then left on ice for a further 20 minutes, washed twice in FB, resuspended in 100 μl FB and analysed on a BD Fortessa™ X20. The subsequent data files were analysed using FlowJo™ and Prism 7 (GraphPad) using a four-parameter non-linear regression.

[4] = target: T3, purified human monomeric 4-1BB (human, UniProt Q07011 24-186); assay: SPR, mean n=3;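 note: antibodies captured on anti-human Fc chip, 4-1BB injected as five-point two-fold series from 40 nM by single-cycle kinetics at 25 °C, sensorgrams fitted to 1:1 Langmuir model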
T3 construct: the assay used the 4-1BB part released by Factor Xa with the Fc removed; also called h4-1BB; human 4-1BB
T3 sequence (Q07011 other isoform, or with tags, fused parts or gaps limits assumed): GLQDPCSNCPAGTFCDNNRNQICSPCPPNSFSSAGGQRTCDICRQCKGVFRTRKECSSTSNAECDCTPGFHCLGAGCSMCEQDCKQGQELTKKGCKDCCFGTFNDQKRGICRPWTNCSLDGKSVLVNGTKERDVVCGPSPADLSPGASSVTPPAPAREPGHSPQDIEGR
Method: The anti-human Fc surface was prepared on a CMS Series S sensorchip by standard amine coupling methods as described by the manufacturer (GE Healthcare). Briefly, immediately after EDC/NHS activation, a 25 μg/mL solution of anti-human Fc in 10 mM NaOAc pH 4.5 was injected at a flow rate of 10 μL/min for 420 s until approximately 2000 resonance units (RUs) were immobilized on all four flow cells. The remaining active groups were quenched by a 420 s injection of 1M ethanolamine at 10 μL/min.
Antibodies for analysis were captured onto the anti-Fc surface by injecting 5 μg/mL solutions at a flow rate of 10 μL/min for 60 s. Using single-cycle kinetics, five concentrations of a two-fold dilution series of 4-1BB starting at 40 nM (for both supernatant and purified antibody runs) with a blank buffer control were sequentially injected at 40 μL/min for 180 s with a 600 s dissociation phase, resulting in a set of sensorgrams with a buffer blank reference. Experiments were performed at a constant temperature of 25° C. The anti-human Fc surfaces were regenerated to prepare for the next injection cycle by one pulse of 10 mM Glycine/HCl pH 1.5 for 120 s at 40 μL/min. Blank-subtracted sensorgrams were analyzed using Biacore™ T200 Evaluation Software v3.0. The blank-subtracted sensorgrams were then fit to the 1:1 Langmuir binding model.
Protein material post protein-A or SEC was assessed for binding to human 4-1BB.

T1 sequence (P15328 25-234 limits assumed): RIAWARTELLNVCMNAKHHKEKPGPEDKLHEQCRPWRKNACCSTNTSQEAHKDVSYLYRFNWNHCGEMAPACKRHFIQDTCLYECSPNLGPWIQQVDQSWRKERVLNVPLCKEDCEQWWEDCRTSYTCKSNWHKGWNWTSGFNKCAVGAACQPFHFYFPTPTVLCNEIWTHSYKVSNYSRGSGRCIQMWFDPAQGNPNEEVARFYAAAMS

Binder	Kd [1] [nM]	Kd [2] [nM]	EC50 [3] [nM]	Kd [4] [nM]
v23800 (antibody, human IgG1, kappa, also called humanized 8K22 H2L2) heavy: not shown light: DIQMTQSPSSLSASVGDRVTITCQASQSIYSSLAWYQQKPGKAPKLLIYDASHLASGVPSRFSGSGSGTDFTLTISSVQPEDFATYYCQGGWYSSAATYVPNTFGGGTKVEVKRTVAAPSVFIFPPSDEQLKSGTASVVCLLNNFYPREAKVQWKVDNALQSGNSQESVTEQDSKDSTYSLSSTLTLSKADYEKHKVYACEVTHQGLSSPVTKSFNRGEC	36.5	–	–	–
v23796 (antibody, human IgG1, kappa, also called humanized 8K22 H3L1) heavy: not shown light: DIQMTQSPSSLSASVGDRVTITCQASQSIYSSLAWYQQKPGKAPKLLIYDASHLASGVPSRFSGSGSGTDFTLTISSVQPEDFATYYCQGGWYSSAATYVPNTFGGGTKVEIKRTVAAPSVFIFPPSDEQLKSGTASVVCLLNNFYPREAKVQWKVDNALQSGNSQESVTEQDSKDSTYSLSSTLTLSKADYEKHKVYACEVTHQGLSSPVTKSFNRGEC	22.2	11.2	–	–
v23801 (antibody, human IgG1, kappa, also called humanized 8K22 H3L2) heavy: not shown light: DIQMTQSPSSLSASVGDRVTITCQASQSIYSSLAWYQQKPGKAPKLLIYDASHLASGVPSRFSGSGSGTDFTLTISSVQPEDFATYYCQGGWYSSAATYVPNTFGGGTKVEVKRTVAAPSVFIFPPSDEQLKSGTASVVCLLNNFYPREAKVQWKVDNALQSGNSQESVTEQDSKDSTYSLSSTLTLSKADYEKHKVYACEVTHQGLSSPVTKSFNRGEC	22.1	8.66	–	–
v23803 (antibody, human IgG1, kappa, also called humanized 8K22 H5L2) heavy: not shown light: DIQMTQSPSSLSASVGDRVTITCQASQSIYSSLAWYQQKPGKAPKLLIYDASHLASGVPSRFSGSGSGTDFTLTISSVQPEDFATYYCQGGWYSSAATYVPNTFGGGTKVEVKRTVAAPSVFIFPPSDEQLKSGTASVVCLLNNFYPREAKVQWKVDNALQSGNSQESVTEQDSKDSTYSLSSTLTLSKADYEKHKVYACEVTHQGLSSPVTKSFNRGEC	31.7	–	–	–
v23813 (antibody, human IgG1, kappa, V domains shown, also called humanized 8K22 H5L4) VH: EVQLVESGGGLVQPGGSLRLSCAASGFTISNNYYMCWVRQAPGKGLEWIACIYGGISGRTYYADWAKGRFTISKDSSKNTVYLQMNSLRAEDTAVYYCVRGYVGTSNLWGQGTLVTVSS VL: DIQMTQSPSSLSASVGDRVTITCQASQSIYSSLAWYQQKPGKAPKLLIYDASHLASGVPSRFSGSGSGTDFTLTISSVQPEDAATYYCQGGWYSSAATYVPNTFGGGTKVEVKR	34.6	–	–	–
v23820 (antibody, human IgG1, kappa, V domains shown, FSA format; rabbit variable domains, human IgG1/kappa constant domains; also called 8K22 rabbit-human parental chimera) VH: QEQLVESGGGLVQPEGSLTLTCKASGFTISNNYYMCWVRQAPGKGLEWIACIYGGISGRTYYASWAKGRFTISKTSSTTVTLQMTSLTAADTATYFCVRGYVGTSNLWGPGTLVTVSS VL: DIVMTQTPASVEAAVGGTVTIKCQASQSIYSSLAWYQQKPGQSPKLLIYDASHLASGVPSRFSGSRYGTEFTLTISGVQCDDAATYYCQGGWYSSAATYVPNTFGGGTEVVVKR	5.94	4.11	–	–
v28701 (antibody, human IgG1, kappa, L234A L235A, V domains shown, also called humanized 5G8 H2L3) VH: QVQLQESGPGLVKPSETLSLTCTVSGFSLISYGVHWVRQPPGKGLEWLGVIWSGGSTDYNPSLKSRVTISKDTSKNQFSLKLSSVTAADTAVYYCARNPLTATVMDYWGQGTLVTVSS VL: DIQMTQSPSSLSASVGDRVTVTCRASQNVGTNVAWYQQKPGKAPKALIYSASYRDSGVPSRFSGSGSGTDFTLTISSVQPEDFATYYCQQYNSYPLTFGGGTKLEIKR	–	–	30	610
v28713 (antibody, human IgG1, kappa, L234A L235A, V domains shown, also called humanized 5G8 H4L4) VH: QVQLQESGPGLVKPSETLSITCTVSGFSLISYGVHWVRQPPGKGLEWLGVIWSGGSTDYNPSLKSRVTISKDNSKNQVSFKLSSLTAADTAIYYCARNPLTATVMDYWGQGTLVTVSS VL: DIQMTQSPSSLSASVGDRVTVTCRASQNVGTNVAWYQQKPGKAPKALIYSASYRDSGVPSRFSGSGSGTDFTLTISSVQPEDLATYYCQQYNSYPLTFGGGTKLEIKR	–	–	2.34	184
v28711 (antibody, human IgG1, kappa, L234A L235A, V domains shown, also called humanized 5G8 H4L2) VH: QVQLQESGPGLVKPSETLSITCTVSGFSLISYGVHWVRQPPGKGLEWLGVIWSGGSTDYNPSLKSRVTISKDNSKNQVSFKLSSLTAADTAIYYCARNPLTATVMDYWGQGTLVTVSS VL: DIQMTQSPSSLSASVGDRVTITCRASQNVGTNVAWYQQKPGKAPKALIYSASYRDSGVPSRFSGSGSGTDFTLTISSLQPEDFATYYCQQYNSYPLTFGGGTKVEIKR	–	–	139	227
v28703 (antibody, human IgG1, kappa, L234A L235A, V domains shown, also called humanized 5G8 H3L1) VH: QVQLQESGPGLVKPSETLSITCTVSGFSLISYGVHWVRQPPGKGLEWLGVIWSGGSTDYNPSLKSRVTISKDTSKNQVSFKLSSLTAADTAIYYCARNPLTATVMDYWGQGTLVTVSS VL: DIQMTQSPSSLSASVGDRVTITCRASQNVGTNVAWFQQKPGKAPKSLIYSASYRDSGVPSRFSGSGSGTDFTLTISSLQPEDFATYYCQQYNSYPLTFGGGTKVEIKR	–	–	3.58	811
v28704 (antibody, human IgG1, kappa, L234A L235A, V domains shown, also called humanized 5G8 H3L2) VH: QVQLQESGPGLVKPSETLSITCTVSGFSLISYGVHWVRQPPGKGLEWLGVIWSGGSTDYNPSLKSRVTISKDTSKNQVSFKLSSLTAADTAIYYCARNPLTATVMDYWGQGTLVTVSS VL: DIQMTQSPSSLSASVGDRVTITCRASQNVGTNVAWYQQKPGKAPKALIYSASYRDSGVPSRFSGSGSGTDFTLTISSLQPEDFATYYCQQYNSYPLTFGGGTKVEIKR	–	–	3.46	179
v28706 (antibody, human IgG1, kappa, L234A L235A, V domains shown, also called humanized 5G8 H3L4) VH: QVQLQESGPGLVKPSETLSITCTVSGFSLISYGVHWVRQPPGKGLEWLGVIWSGGSTDYNPSLKSRVTISKDTSKNQVSFKLSSLTAADTAIYYCARNPLTATVMDYWGQGTLVTVSS VL: DIQMTQSPSSLSASVGDRVTVTCRASQNVGTNVAWYQQKPGKAPKALIYSASYRDSGVPSRFSGSGSGTDFTLTISSVQPEDLATYYCQQYNSYPLTFGGGTKLEIKR	–	–	1.92	159

The remaining lines, values ahead:

Kd [1] [nM]	Kd [2] [nM]	EC50 [3] [nM]	Kd [4] [nM]	Binder
13.8	4.8	–	–	v23799 (antibody, human IgG1, kappa, also called humanized 8K22 H1L2) heavy: not shown light: DIQMTQSPSSLSASVGDRVTITCQASQSIYSSLAWYQQKPGKAPKLLIYDASHLASGVPSRFSGSGSGTDFTLTISSVQPEDFATYYCQGGWYSSAATYVPNTFGGGTKVEVKRTVAAPSVFIFPPSDEQLKSGTASVVCLLNNFYPREAKVQWKVDNALQSGNSQESVTEQDSKDSTYSLSSTLTLSKADYEKHKVYACEVTHQGLSSPVTKSFNRGEC
15.1	7.36	–	–	v23794 (antibody, human IgG1, kappa, also called humanized 8K22 H1L1) heavy: not shown light: DIQMTQSPSSLSASVGDRVTITCQASQSIYSSLAWYQQKPGKAPKLLIYDASHLASGVPSRFSGSGSGTDFTLTISSVQPEDFATYYCQGGWYSSAATYVPNTFGGGTKVEIKRTVAAPSVFIFPPSDEQLKSGTASVVCLLNNFYPREAKVQWKVDNALQSGNSQESVTEQDSKDSTYSLSSTLTLSKADYEKHKVYACEVTHQGLSSPVTKSFNRGEC
35.7	–	–	–	v23795 (antibody, human IgG1, kappa, also called humanized 8K22 H2L1) heavy: not shown light: DIQMTQSPSSLSASVGDRVTITCQASQSIYSSLAWYQQKPGKAPKLLIYDASHLASGVPSRFSGSGSGTDFTLTISSVQPEDFATYYCQGGWYSSAATYVPNTFGGGTKVEIKRTVAAPSVFIFPPSDEQLKSGTASVVCLLNNFYPREAKVQWKVDNALQSGNSQESVTEQDSKDSTYSLSSTLTLSKADYEKHKVYACEVTHQGLSSPVTKSFNRGEC
11.9	6.85	–	–	v23798 (antibody, human IgG1, kappa, also called humanized 8K22 H5L1) heavy: not shown light: DIQMTQSPSSLSASVGDRVTITCQASQSIYSSLAWYQQKPGKAPKLLIYDASHLASGVPSRFSGSGSGTDFTLTISSVQPEDFATYYCQGGWYSSAATYVPNTFGGGTKVEIKRTVAAPSVFIFPPSDEQLKSGTASVVCLLNNFYPREAKVQWKVDNALQSGNSQESVTEQDSKDSTYSLSSTLTLSKADYEKHKVYACEVTHQGLSSPVTKSFNRGEC
35	–	–	–	v23810 (antibody, human IgG1, kappa, V domains shown, also called humanized 8K22 H2L4) VH: EVQLVESGGGLVQPGGSLRLSCAASGFTISNNYYMCWVRQAPGKGLEWIACIYGGISGRTYYADSAKGRFTISKDNSKNTVYLQMNSLRAEDTAVYYCVRGYVGTSNLWGQGTLVTVSS VL: DIQMTQSPSSLSASVGDRVTITCQASQSIYSSLAWYQQKPGKAPKLLIYDASHLASGVPSRFSGSGSGTDFTLTISSVQPEDAATYYCQGGWYSSAATYVPNTFGGGTKVEVKR
–	–	51.6	732	v28707 (antibody, human IgG1, kappa, L234A L235A, V domains shown, also called humanized 5G8 H4L1) VH: QVQLQESGPGLVKPSETLSITCTVSGFSLISYGVHWVRQPPGKGLEWLGVIWSGGSTDYNPSLKSRVTISKDNSKNQVSFKLSSLTAADTAIYYCARNPLTATVMDYWGQGTLVTVSS VL: DIQMTQSPSSLSASVGDRVTITCRASQNVGTNVAWFQQKPGKAPKSLIYSASYRDSGVPSRFSGSGSGTDFTLTISSLQPEDFATYYCQQYNSYPLTFGGGTKVEIKR
–	–	3.56	229	v28712 (antibody, human IgG1, kappa, L234A L235A, V domains shown, also called humanized 5G8 H4L3) VH: QVQLQESGPGLVKPSETLSITCTVSGFSLISYGVHWVRQPPGKGLEWLGVIWSGGSTDYNPSLKSRVTISKDNSKNQVSFKLSSLTAADTAIYYCARNPLTATVMDYWGQGTLVTVSS VL: DIQMTQSPSSLSASVGDRVTVTCRASQNVGTNVAWYQQKPGKAPKALIYSASYRDSGVPSRFSGSGSGTDFTLTISSVQPEDFATYYCQQYNSYPLTFGGGTKLEIKR
–	–	55.6	620	v28702 (antibody, human IgG1, kappa, L234A L235A, V domains shown, also called humanized 5G8 H2L4) VH: QVQLQESGPGLVKPSETLSLTCTVSGFSLISYGVHWVRQPPGKGLEWLGVIWSGGSTDYNPSLKSRVTISKDTSKNQFSLKLSSVTAADTAVYYCARNPLTATVMDYWGQGTLVTVSS VL: DIQMTQSPSSLSASVGDRVTVTCRASQNVGTNVAWYQQKPGKAPKALIYSASYRDSGVPSRFSGSGSGTDFTLTISSVQPEDLATYYCQQYNSYPLTFGGGTKLEIKR
